Experimental data reported in the DeepSol protein solubility set.

Assay: soluble on expression in E. coli; label from the status in PepcDB or PDB records

| Sequence | soluble on expression in E. coli |
| --- | --- |
| SANDKQYISYNNVHQLCQVSAERIKNFKPDLIIAIGGGGFIPARILRTFLKEPGVPTIRIFAIILSLYEDLNSVGSEVEEVGVKVSRTQWIDYEQCKLDLVGKNVLIVDEVDDTRTTLHYALSELEKDAAEQAKAKGIDTEKSPEMKTNFGIFVLHDKQKPKKADLPAEMLNDKNRYFAAKTVPDKWYAYPWESTDIVFHTRMAIEQGNDIFIPEQEHKQ | soluble |
| AHHHHHHGSEIYEGKAKKMIPLDEDKFIMEFKDDATAFDGVKKAKFVGKGWLNAQISAKLFKLLEDHGIKTHFIGVAGGNRLIVERLEMYPIEVVVRNVVAGSLKKRLPLPEGYELPEPIVELYYKSDELHDPMINYYHARILGISEEEIKEMERIALKVNEILKKFFREKGIILVDFKLEFGKNKKGEIVLADEISPDTCRFWDVETKKSLDKDVFRFDKGDLIEAYKELYKRLIGEEPQI | not soluble |
| AIKDAATKLFDPYEILGISTSASDRDIKSAYRKLSVKFHPDKLAKGLTPDEKSVMEETYVQITKAYESLTDELVRQNYLKYGHPDGPQSTSHG | not soluble |
| MGVFNYEIETTSVIPAARLFKAFILDGDNLVPKVAPQAISSVENIEGNGGPGTIKKINFPEGFPFKYVKDRVDEVDHTNFKYNYSVIEGGPVGDTLEKISNEIKIVATPDGGCVLKISNKYHTKGNHEVKAEQVKASKEMGETLLRAVESYLLAHSDAYN | soluble |
| MLSRPSGTVAKTEFQLRRNVLPALKRFVSAAAKSAGVQEKTTVLENGLRVSSVELNGATSSIVLAFRAGSRYQPANKQGLTHLIRNSVGRDAPNFPGLALVWNTAQNGGNLTAVSNRDVLAIEVNVVRDQSAVVLSLLGQLGNNAFKPWDVEDVKHDTLPADATYLTGTTIAFEQLHQAAFRNGGLGLSNYSVNNVSAKDLSAFAKERLVAGEAVLVGVNVDHDTLVQAGSTQFPLAQNQPAKATPAKYFGGEARKDGRGNRSYVAIAGEGSAITSVKDVAVQAVVAQILLNAAQKVTSEAISVNVNYQDSGLVGVQFAACNTQITQVTKSIASAIKSAKADGLDNAKNTAAVQVLSDAQHASEVALEKATQVLAGVEVSPREFADAIRAVTAQDVTQALSRVNGKLSLAAYGSTSLVPYLDEL | not soluble |
| MAHHHHHHMPIIESDLLSLAYKAALSALLSEEIYNFGKFLNERHFTERLADSVQHAWILEWLRLCNDGKVEEFEQYAVAHKAEMAASPILSESFPSITKKVRLMALLHLVFYTPFNERTFTFDVIARRCAVDEERVEPLLLAALAQGIIMGKIDGLTQEVHITWVEPRVLSLQEVKELAVHVSRWKEKTLGLMQCMKEAAQETHN | not soluble |
| MGSDKIHHHHHHMELNEFLDKAYAVLRRLDAVLPPEPGHTDWNALAFRWQSAGKKGFLEHLPDPHTFPLARLAGVGRQTELLVRNTEQFIAGRPANNVLMSGARGTGKSSLVKALLHEYADKGLRLIEVDKSDLIGLPYLLTLLKERPEKFIVFCDDLSFESGDETYKALKTALDGGLSQRCANVLVYATSNRRHLMPEYFDENAGTTGMRGEIHQKEAVEEKISLSDRFGLWLSFYPFDQNDYLAAVQNWLEDFGVPYDETAQMAALQWAQTRGSRSGRSAWQFACDWAGRLPKQRAL | not soluble |
| MGSDKIHHHHHHMHVIKAKDDYTYRHTVGVSILSRLIGTWLKLDEVILKELTLGAVLHDIGKVEIPDAILNKPGALTKDEYRIIQDHTVKGYRIIQESGIYSDTVALMALEHHEREDGTGYPYQKTRNEIHLLSKILAVADVFHAMTSDRIYRKGMALYDVLLQMRQDRFGKLEPRITDFFVRRFMEQCIGSKARLNDGSRVEIVFIPYENPICPIVKQGTNYIDLRMSPLYIQELIPVTVKV | not soluble |
| MSSGSTSTTPRAWLSGSVVTGKCCLLVIRKGQRPGVPFPAPCASGVAVTGRPPCATGGRGRTRPPTGVGEDTKDSCGKGIADETPRRHHGGPATRKAGRATGRSERGHSRGTRPAELMPIPRSPVVVALGAFEISNES | not soluble |
| MYQNFVTKHDTAIQTSRFSVTGNVIPAAPTGNIPVINGGSITAERAVVNLYANMNVSTSSDGSFIVAMKVDTSPTDPNCVISAGVNLSFAGTSYPIVGIVRFESASEQPTSIAGSEVEHYPIEMSVGSGGVCSARDCATVDIHPRTSGNNVFVGVICSSAKWTSGRVIGTIATTQVIHEYQVLQPLK | soluble |
